From the supplement of paper PMC10567573

B1: FAM189A2 (parent)
chain: NLAGFILGCQGAQFVSSVPRCDLV
B2: PPP2R2B (parent)
chain: PSNRSFFSEIISSISDVKFSHSGR

Variants of: B1
Test: protein stability index of a GFP-peptide fusion (GPS, HEK-293T) (PSI 1-6); higher = more stable
Settings: c terminus: a fixed tail appended
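Also: lentivirally expressed fusions sorted by FACS into six bins by GFP to DsRed ratio, PSI derived from sequencing read proportions per bin multiplied by bin number.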

Protein stability index of substitutions, site by site:
G11: D 2.76 | L 3.39 | P 3.59 | I 3.71 | W 3.48 | N 3.08 | R 5.06 | Y 3.45
G8: L 2.81 | R 2.34 | K 3.72 | D 2.19 | I 3.23 | T 2.17 | W 2.45 | Y 3.33 | F 3.47 | P 2.03
S17: T 1.97 | Q 2.31 | R 2.1 | D 1.72 | W 3.85 | H 3.37 | I 1.39 | Y 3.35 | M 1.47 | K 2.33 | E 2.31
S16: W 3.86 | C 2.58 | T 2.23 | I 3.41 | D 1.04 | K 3.56 | H 1.8 | G 3.41 | Y 4.96 | N 1.72 | R 2.89 | L 2.34 | E 2.21
R20: P 2.2 | F 2.19 | M 2.91 | E 1.96 | I 2.15 | L 1.87 | K 2.1 | H 3.48 | D 3.39 | G 3.08
A12: K 1.89 | R 3.12 | C 2.54 | L 2.95 | D 4.07 | W 2.15 | H 1.03 | F 2.91 | P 2.99 | E 3.98
A3: F 2.77 | R 1.72 | Y 3.97 | D 1.84 | M 3.4 | N 4.16 | H 2 | P 1.45 | K 2.35 | T 3.18 | W 3.4 | Q 1.03 | E 2.11 | S 1.12
L7: F 2.51 | M 2 | S 2.02 | P 1.43 | N 2.75 | C 2.6 | K 1.69 | D 2.19 | E 1.77 | G 1.82 | R 1.63 | T 2.58 | H 1.73 | Q 2.1
F5: M 1.7 | I 5.13 | D 2.16 | N 2.19 | S 1.87 | G 1.5 | H 2.71 | P 3.25 | E 2.18 | Q 2.27 | T 1.86
P19: R 2.56 | M 1.45 | Q 2.65 | A 3.01 | T 3.3 | H 3.01 | F 3.04 | C 3.7 | N 3.15
G4: P 3.65 | Y 4.24 | N 3.42 | D 2.36 | C 3.26 | F 2.45 | T 3.08 | M 4.18
C9: A 2.62 | F 2.36 | S 2.71 | L 1.76 | H 3.12 | K 1.74 | G 2.35 | E 2.54 | D 1.38 | V 2.04 | R 1.23 | P 1.11
Q10: M 3.99 | P 4.29 | C 1.49 | L 1.53 | R 2.51 | H 2.76 | I 2.87 | T 3.84 | D 3.6 | G 2.63
V18: N 2.59 | D 2.55 | M 3.72 | E 1.05 | C 2.83 | I 3.42 | S 2.4 | L 2.27 | P 2.8 | G 1.61 | Y 2.68 | K 1.99 | F 2.54 | T 1.68 | R 1.78
F14: T 1.27 | A 1.29 | Y 2.9 | V 2.29 | Q 1.92 | H 1.87 | E 1.34 | P 2.4 | K 1.16 | R 1.27 | M 2.71 | N 1.72 | W 2.78
V15: K 2.19 | D 1.55 | C 2.72 | H 3.13 | E 1.94 | L 3.14 | Q 3.5 | R 1.75 | Y 2.46
L2: S 1.55 | H 1.7 | D 3.18 | Q 3.01 | R 1.87 | K 2.67 | I 3.93 | Y 2.72 | C 1.31 | T 1.76 | G 1.23 | F 2.65 | N 1.97 | W 1.35 | E 2.13 | P 1.26
I6: C 2.3 | W 1.76 | Q 1.94 | D 2.68 | A 1.46 | H 1.64 | N 2.11 | K 2.29 | P 1.6 | Y 2.26 | R 1.78 | G 1.79 | S 1.98 | V 2.18 | E 1.49 | T 1.66 | F 2.78
Q13: V 2.53 | T 3.16 | N 2.93 | Y 3.26 | M 2.01 | C 2.76 | F 3 | A 4.08 | P 2.31 | D 2.27
N1: R 2.73 | A 3.77 | H 2.03 | Q 1.85 | Y 3.31 | G 1.51 | K 2.77 | L 2.75 | P 2.63 | W 3.42 | C 2.92

Variants of: B2
Test: as above
Settings: c terminus: a fixed tail appended

Protein stability index: each site, then its substitutions
G23: N 2.79 | S 2.33
R24: N 2.81 | K 2.65 | Q 2.39
S20: E 2.94 | A 2.39 | D 2.88
S22: A 2.4 | Y 2.2 | G 2.57 | P 2.38
H21: E 2.87 | G 2.39 | Y 1.97
I11: P 3.57 | A 3.34 | N 3.21 | K 3 | Q 3.04 | V 3.26
R4: T 2.48 | V 2.47 | A 2.64 | E 2.81
V17: F 2.18 | E 3.05 | Y 2.29 | M 2.53 | H 3.21
S12: N 2.5 | W 1.98 | P 2.65 | F 1.72 | G 2.54
K18: I 2.33 | M 2.02 | G 2.66 | L 2.35 | F 2.17
E9: H 1.99 | F 1.63 | K 2.23 | Q 2.31 | T 2.17 | L 2.58
N3: P 2.49 | M 2.13
F6: Q 2.89 | P 3.02 | L 2.39 | S 3.07
F19: P 3 | I 2.43
S13: E 3.26 | K 2.19 | M 1.76 | D 2.58 | Y 1.65 | H 2.67 | F 1.73 | R 2.63
P1: F 1.89 | S 2.21 | G 2.69
S5: E 2.9 | N 2.36 | G 2.59 | Y 2.04 | R 2.64 | H 2.91 | P 2.88 | T 2.31 | C 1.65 | A 2.31 | F 2.54
D16: L 2.05 | H 2.19
S15: I 2.26 | R 2.25 | N 2.77
S2: C 2.4 | G 2.66
I10: G 3.39 | C 2.91 | V 2.83 | D 3.13 | E 3.64 | N 3.09 | S 3.09 | K 3.11 | H 2.98
F7: N 3.48 | P 2.87 | E 3.69 | G 3.42 | C 2.83 | K 3.26 | T 2.79 | Y 2.51
S8: F 2.11 | D 2.32 | A 1.91
